# Laboratory results from patent publication US20260201391.
# Read-outs that look alike come from different tables or passages of the source.
# System: thrombin
Substance,binding signal (fold higher Kd than TBV-08) (Kd of TBV-08 stated as 200-fold lower than Tasset-29),binding signal (fold higher Kd than TBV-08) (Kd of TBV-08 stated as 300-fold lower than Bock-15)
Tasset-29,200,
Bock-15,,300
